The values that follow come from publication PMC9881131, “ZNF212 promotes genomic integrity through direct interaction with TRAIP” (Nucleic Acids Research, 2023).

The target in this assay is T1, recombinant HA-NEIL3 (human, UniProt Q8TAT5 1-605).
T1 construct: NEIL3, human (hNEIL3), subcloned into a pET19b-derived plasmid; The methods tell 3x FLAG (N-terminus) and 10x His (C-terminus); the results call the purified protein HA-NEIL3; Which tags stood on the protein in the assay is not clear; also called hNEIL3; source: E. coli BL21 (DE3), purified (Ni-NTA, Q column, gel filtration)
T1 sequence (looked up): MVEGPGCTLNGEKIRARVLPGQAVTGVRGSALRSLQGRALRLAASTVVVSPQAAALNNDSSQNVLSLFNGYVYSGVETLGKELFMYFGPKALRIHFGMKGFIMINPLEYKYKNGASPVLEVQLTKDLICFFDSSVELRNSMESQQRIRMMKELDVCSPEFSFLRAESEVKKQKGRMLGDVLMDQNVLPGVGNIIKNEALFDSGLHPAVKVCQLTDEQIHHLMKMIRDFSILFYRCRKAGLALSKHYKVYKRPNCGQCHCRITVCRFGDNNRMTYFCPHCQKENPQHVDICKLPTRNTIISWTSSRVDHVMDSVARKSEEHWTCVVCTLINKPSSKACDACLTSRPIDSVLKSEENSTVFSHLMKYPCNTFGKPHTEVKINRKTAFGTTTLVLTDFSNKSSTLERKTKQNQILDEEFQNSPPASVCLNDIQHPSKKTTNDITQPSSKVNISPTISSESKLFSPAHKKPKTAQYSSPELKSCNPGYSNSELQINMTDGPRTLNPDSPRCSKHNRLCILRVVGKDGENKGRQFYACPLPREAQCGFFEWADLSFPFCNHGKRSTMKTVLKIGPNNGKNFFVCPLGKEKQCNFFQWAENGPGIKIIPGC
The assay can be described thus: co-IP; purified recombinant Flag-ZNF212 (or ZNF212-C) and HA-NEIL3; immunoprecipitation with increasing amounts of HA-NEIL3. The settings on record: both partners purified.

B1: recombinant Flag-ZNF212 (natural protein)
chain: not shown
notes: ZNF212, human, 3X-Flag tagged coding region cloned in pCold TF DNA; The host strain (E. coli BL21 (DE3)) is stated for hNEIL3 only; the later purification steps are told for hNEIL3 only; also called hZNF212; source: pCold TF DNA vector, cells grown in LB broth at 15°C, purified (Ni-NTA)
Turning to B1, the binding result was “binds”.
